Assay [1] deals with Flag-TDRD3 CTD-deletion mutant. Briefly: co-IP.
Assay [2] has as its target Flag-TDRD3 Tudor-deletion mutant (UniProt Q9H7E2). Description: co-IP.

Sequence of Flag-TDRD3 Tudor-deletion mutant (Q9H7E2 whole entry, stated change not applied): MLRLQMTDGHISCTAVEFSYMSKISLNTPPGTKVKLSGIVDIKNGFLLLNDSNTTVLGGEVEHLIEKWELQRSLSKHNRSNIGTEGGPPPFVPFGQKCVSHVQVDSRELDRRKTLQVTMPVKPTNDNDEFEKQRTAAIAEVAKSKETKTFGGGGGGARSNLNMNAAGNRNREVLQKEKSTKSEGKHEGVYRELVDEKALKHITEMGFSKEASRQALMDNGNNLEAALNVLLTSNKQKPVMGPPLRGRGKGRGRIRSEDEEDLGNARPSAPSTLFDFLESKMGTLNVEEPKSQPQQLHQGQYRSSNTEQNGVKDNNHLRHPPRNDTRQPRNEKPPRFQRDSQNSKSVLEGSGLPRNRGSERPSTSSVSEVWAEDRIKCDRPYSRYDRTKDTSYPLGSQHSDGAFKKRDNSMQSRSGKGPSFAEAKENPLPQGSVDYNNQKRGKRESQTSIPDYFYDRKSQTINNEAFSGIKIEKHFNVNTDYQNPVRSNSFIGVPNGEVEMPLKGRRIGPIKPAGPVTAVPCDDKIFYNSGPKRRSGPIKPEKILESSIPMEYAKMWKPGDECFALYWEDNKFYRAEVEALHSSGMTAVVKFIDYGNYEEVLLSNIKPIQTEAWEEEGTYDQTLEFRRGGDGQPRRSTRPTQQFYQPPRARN
Sequence of Flag-TDRD3 CTD-deletion mutant (Q9H7E2 whole entry, stated change not applied): as above
Sequence of FXR2, endogenous human (P51116 whole entry): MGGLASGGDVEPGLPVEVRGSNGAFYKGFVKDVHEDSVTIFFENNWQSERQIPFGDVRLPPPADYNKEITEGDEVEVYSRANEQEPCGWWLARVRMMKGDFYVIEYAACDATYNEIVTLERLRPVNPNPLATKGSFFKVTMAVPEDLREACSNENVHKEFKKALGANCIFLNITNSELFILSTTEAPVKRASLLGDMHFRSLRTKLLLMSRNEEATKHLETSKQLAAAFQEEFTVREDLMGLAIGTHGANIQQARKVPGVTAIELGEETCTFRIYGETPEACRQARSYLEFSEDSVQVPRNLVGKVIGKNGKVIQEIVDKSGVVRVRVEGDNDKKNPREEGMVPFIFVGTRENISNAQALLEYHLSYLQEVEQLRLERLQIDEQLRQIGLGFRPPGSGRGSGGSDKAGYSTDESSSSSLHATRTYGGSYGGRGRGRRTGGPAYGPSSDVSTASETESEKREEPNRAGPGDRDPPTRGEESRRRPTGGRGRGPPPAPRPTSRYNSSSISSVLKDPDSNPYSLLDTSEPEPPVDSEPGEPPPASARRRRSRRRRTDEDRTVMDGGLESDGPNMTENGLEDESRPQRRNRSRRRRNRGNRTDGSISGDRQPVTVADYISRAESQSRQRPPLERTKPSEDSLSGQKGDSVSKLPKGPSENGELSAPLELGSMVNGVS
Sequence of FXR1, endogenous human (P51114 whole entry): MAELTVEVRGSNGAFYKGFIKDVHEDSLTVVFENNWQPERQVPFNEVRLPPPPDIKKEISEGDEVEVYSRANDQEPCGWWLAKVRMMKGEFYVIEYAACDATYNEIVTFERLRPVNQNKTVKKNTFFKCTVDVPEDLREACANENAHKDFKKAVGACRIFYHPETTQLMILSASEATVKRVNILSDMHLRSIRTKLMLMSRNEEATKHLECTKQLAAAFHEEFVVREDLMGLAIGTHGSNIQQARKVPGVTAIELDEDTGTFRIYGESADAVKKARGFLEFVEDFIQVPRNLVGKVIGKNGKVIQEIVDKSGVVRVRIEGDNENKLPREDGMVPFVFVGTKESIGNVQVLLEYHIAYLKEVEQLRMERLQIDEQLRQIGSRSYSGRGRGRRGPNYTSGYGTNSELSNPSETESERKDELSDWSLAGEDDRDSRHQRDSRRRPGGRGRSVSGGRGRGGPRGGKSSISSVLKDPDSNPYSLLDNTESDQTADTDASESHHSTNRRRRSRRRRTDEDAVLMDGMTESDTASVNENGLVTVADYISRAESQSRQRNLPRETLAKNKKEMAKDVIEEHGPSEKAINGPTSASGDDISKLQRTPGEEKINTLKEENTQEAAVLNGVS

With “FXR2, endogenous human (from UniProt P51116 1-673) (natural protein)”, the reduction of the co-immunoprecipitated amount against wild-type TDRD3 came to 80% in assay [1] and 30% in assay [2].
The matching figures for “FXR1, endogenous human (from UniProt P51114 1-621) (natural protein)”: 80% and 30%.
The matching figures for “FMRP, endogenous human (from UniProt Q06787 1-632) (natural protein)”: 80% and 30%.
